Ends that are not written are not given here.
T1: MDM2_(D. rerio) SWIB domain (zebra fish (Danio rerio))
T1 construct: four residues left at the N-terminus after PreScission digestion, GPGS or GPMG; which of the two for this variant is in Excel File 1 in Data S1; MDM2, zebra fish, SWIB domain; Construct limits are in Excel File 1 in Data S1; also called zebra fish MDM2; source: E. coli BL21 (DE3) or BL21 (DE3) pLys, purified (Ni Sepharose or glutathione agarose, PreScission cleavage, SEC); not shown: …
T1 sequence (O42354 whole entry, looked up): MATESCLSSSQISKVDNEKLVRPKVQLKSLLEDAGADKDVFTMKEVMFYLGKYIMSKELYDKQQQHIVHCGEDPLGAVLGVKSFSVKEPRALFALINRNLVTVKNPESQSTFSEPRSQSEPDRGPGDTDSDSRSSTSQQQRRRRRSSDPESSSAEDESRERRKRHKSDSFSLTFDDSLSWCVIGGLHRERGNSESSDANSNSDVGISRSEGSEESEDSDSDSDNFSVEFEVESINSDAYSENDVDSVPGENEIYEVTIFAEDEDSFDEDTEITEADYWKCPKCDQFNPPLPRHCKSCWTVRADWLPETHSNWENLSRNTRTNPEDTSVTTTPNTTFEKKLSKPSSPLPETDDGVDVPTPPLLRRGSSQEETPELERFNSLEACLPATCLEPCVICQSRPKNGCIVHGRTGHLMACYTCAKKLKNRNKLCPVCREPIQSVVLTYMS

B1: MDM2_(G. gallus) SWIB domain (domain or fragment)
chain: SPVSASEQEALVKPKPLLLKLLKLAGAEKDTFTMKEVIFYLGQYIMSKQLYDEKEQHIVHCANDLLGDLFGVTSFSVKEHRRIYSMISRNLIAINQQDSTLAVPPEDDA

Assays:
Details in all cases: both partners purified
[1] = molecular target: MDM2_(H. sapiens) SWIB domain (human (Homo sapiens)); test: stopped-flow fluorescence kinetics; 10°C, 20 mM sodium phosphate pH 7.4, 150 mM NaCl, 1 mM TCEP; Trp23 emission; MDM2 constant at 0.5–2 μM, p53TAD varied 1–10 μM for k on; k off from displacement of the 1 μM:1 μM complex by 10–20 μM dansylated human p53TAD peptide; K D = k off/k on
[2] = molecular target: T1, MDM2_(D. rerio) SWIB domain; test: as above
[3] = molecular target: T2, MDM2_(H. sapiens) SWIB domain (human (Homo sapiens)); test: as above
T2 construct: four residues left at the N-terminus after PreScission digestion, GPGS or GPMG; which of the two for this variant is in Excel File 1 in Data S1; MDM2, human, SWIB domain; the limits of the human construct itself are in Excel File 1 in Data S1; also called human MDM2; MDM2_(Human); source: E. coli BL21 (DE3) or BL21 (DE3) pLys, purified (Ni Sepharose or glutathione agarose, PreScission cleavage, …)

[4] = molecular target: MDM2_(Fishes/Tetrapods)^ML; test: as above
[5] = molecular target: MDM2_(L. camtschaticum) SWIB domain (arctic lamprey (Lethenteron …)); test: fluorescence polarisation; displacement: FITC-labeled human p53TAD 15–26 (6 or 10 nM) and MDM2 constant, dilution series of unlabeled peptide; K D calculated from IC50; room temperature, same buffer as the kinetics
Chain of MDM2_(L. camtschaticum) SWIB domain (arctic lamprey (Lethenteron …)) (chain, as listed by the source): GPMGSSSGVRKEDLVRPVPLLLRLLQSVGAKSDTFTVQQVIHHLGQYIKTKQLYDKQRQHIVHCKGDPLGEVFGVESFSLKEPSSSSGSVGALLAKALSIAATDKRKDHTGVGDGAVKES

[6] = molecular target: MDM2_(Fishes/Tetrapods)^AltAll; test: stopped-flow fluorescence kinetics; 10°C, 20 mM sodium phosphate pH 7.4, 150 mM NaCl, 1 mM TCEP; Trp23 emission; MDM2 constant at 0.5–2 μM, p53TAD varied 1–10 μM for k on; k off from displacement of the 1 μM:1 μM complex by 10–20 μM dansylated human p53TAD peptide; K D = k off/k on
[7] = molecular target: MDM2_(Reptiles/Mammals)^ML; test: as above
[8] = molecular target: MDM2_(Reptiles/Mammals)^AltAll; test: as above
[9] = molecular target: T3, p53TAD_(G. gallus)^14–26 (chicken (Gallus gallus), acetylated); test: as above
T3 construct: numbers count on: human p53 by alignment; also called chicken p53TAD; source: synthetic peptide, bought (Ontores Biotechnology, GL Biochem Shanghai Ltd or GeneCust)

[10] = molecular target: T2, MDM2_(H. sapiens) SWIB domain; test: fluorescence polarisation; displacement: FITC-labeled human p53TAD 15–26 (6 or 10 nM) and MDM2 constant, dilution series of unlabeled peptide; K D calculated from IC50; room temperature, same buffer as the kinetics

| Binder | Kd [3] [nM] | Kd [4] [nM] | further results |
| --- | --- | --- | --- |
| DSQETFAELWEKN (not fully specified (N-terminus); also: acetylated, site not given here) [p53TAD_(D. rerio)^insertT18] | – | – | Kd [1]: 4900 nM; Kd [2]: 2300 nM |
| SQETFSDLWNML (not fully specified (N-terminus); also: acetylated, site not given here) [p53TAD_(Fishes/Tetrapods)^ML] | 8 | 145 | Kd [2]: 93 nM |
| CVDDFDRVWQGGV (not fully specified (N-terminus); also: acetylated, site not given here) [p53TAD_(L. camtschaticum)] | – | – | Kd [5]: 250000 nM |
| SQESFSDLWNLL (not fully specified (N-terminus); also: acetylated, site not given here) [p53TAD_(Fishes/Tetrapods)^AltAll] | 19 | – | Kd [6]: 98 nM |
| SQETFSDLWNLL (not fully specified (N-terminus); also: acetylated, site not given here) [p53TAD_(Reptiles/Mammals)^ML] | 8 | – | Kd [7]: 120 nM |
| SQETFSDLWNML (not fully specified (N-terminus); also: acetylated, site not given here) [p53TAD_(Reptiles/Mammals)^AltAll] | 9.5 | – | Kd [8]: 200 nM |
| SQETFNHLWNML (not fully specified (N-terminus); also: acetylated, site not given here) [p53TAD1R^ML] | 82 | 660 | – |
| SQDTFSDLWNQL (not fully specified (N-terminus); also: acetylated, site not given here) [p53TAD1R^AltAll] | 24 | 370 | – |
| SQETFNHLWNTL (not fully specified (N-terminus); also: acetylated, site not given here) [p53TAD_(Bilateria)^ML] | 600 | 2100 | – |
| B1 | – | – | Kd [9]: 90 nM |
| SQETFDFLWKSL (not fully specified (N-terminus); also: acetylated, site not given here) [p53TAD_(Bilateria)^AltAll] | 170 | 650 | – |
| Ac-NDVELAELPWAPEDVI [p53TAD_(I. scapularis)] | – | – | Kd [10]: 400000 nM |

From paper PMC10303687 (Protein Science : A Publication of the Protein Society, 2023)
